Some targets named below: HIV Env, isolate CNE17 (HIV); HIV Env, isolate PVO.4 (HIV); HIV Env, isolate Du422.1 (HIV); HIV Env, isolate 249MB10 (HIV); HIV Env, isolate T263-8 (HIV).
Common to all, as to assay: cell-based or functional assay
For test [1], the target named is HIV Env, isolate 231965.c01 (HIV).
For test [2], the target named is HIV Env, isolate 6811.v7.c18 (HIV).
Test [3] concerns the target HIV Env, isolate CAAN5342.A2 (HIV).
The target of test [4] is HIV Env, isolate HIV-001428-2.42 (HIV).
In test [5] the target is HIV Env, isolate Ce703010054_2A2 (HIV).
In test [6] the target is HIV Env, isolate 7030102001E5(Rev-) (HIV).
The target of test [7] is HIV Env, isolate Ce1176_A3 (HIV).
In test [8] the target is HIV Env, isolate Ce0393_C3 (HIV).
The target in test [9] is HIV Env, isolate X2088_C9 (HIV).
Test [10] concerns the target HIV Env, isolate 1394C9G1(Rev-) (HIV).
In test [11] the target is HIV Env, isolate 6952.v1.c20 (HIV).
For test [12], the target named is HIV Env, isolate BF1266.431a (HIV).
For test [13], the target named is HIV Env, isolate 1054_07_TC4_1499 (HIV).

Changes are numbered by the printed parent chain.

B1: ePGDM13 (antibody, V domains shown)
VH: QAQLVQSGPEVRKPGTSVKVSCKNPGNTLTTYDLHWVRQVPGQGLQWMGWISHEGDKKVIVERFKAKVTIDWDRSTNTAYLQLSGLTSEDTAVYYCAKGSKHRLRDYALYDEDGALNWAVDVDYLANLEFWGQGTAVTVSS
VL: DIVLTQSPLSLSVTPGESASISCKSSHSLQHGDRNNYLAWYVQKPGRSPQLLLDLASERASGVPDRFSGSGSEKDFTLKISRVETEDVGTYYCMQGRESPWTFGQGTKVDIK
With B1, the “IC80 (µg/ml) with constrains” value is 0.058 µg/mL in [1]; greater than 100 µg/mL in [2]; 0.031 µg/mL with HIV Env, isolate CNE17; greater than 100 µg/mL in test [3]; 0.011 µg/mL in test [4]; 0.031 µg/mL in test [5]. The “IC80 (µg/ml) with constrains” value in test [6] was greater than 100 µg/mL; with HIV Env, isolate PVO.4 it was 11.8 µg/mL; in test [7], 0.124 µg/mL; in test [8], 0.022 µg/mL; in test [9] it was greater than 100 µg/mL; in the test with HIV Env, isolate Du422.1, greater than 100 µg/mL. Further, the “IC80 (µg/ml) with constrains” value is 0.011 µg/mL in [10]; 0.318 µg/mL in [11]; 0.13 µg/mL with HIV Env, isolate 249MB10; 0.101 µg/mL with HIV Env, isolate T263-8; 0.016 µg/mL in test [12]; greater than 100 µg/mL in test [13].

B2: PGDM1400 (antibody, V domains shown)
VH: B1 VH with A2V, Q3H, V5T, N24A, T30K, Q39S, E89G, E112D, A126S
VL: B1 VL with I2F, L9H, Q30I, L53I, D54Y, E58S, E73D
Take B2: the “IC80 (µg/ml) with constrains” value in test [1] is 0.242 µg/mL; in test [2], greater than 100 µg/mL; with HIV Env, isolate CNE17, 0.018 µg/mL; in test [3], greater than 100 µg/mL; in test [4] it was 0.054 µg/mL; in [5] it was 0.057 µg/mL. Further, the “IC80 (µg/ml) with constrains” value in test [6] was greater than 100 µg/mL; in the test with HIV Env, isolate PVO.4 it was 13.6 µg/mL; in [7], 2.1 µg/mL; in test [8], 0.037 µg/mL; in test [9], greater than 100 µg/mL; with HIV Env, isolate Du422.1, greater than 100 µg/mL. Also, the “IC80 (µg/ml) with constrains” value was 0.012 µg/mL in [10]; 7.03 µg/mL in [11]; 0.085 µg/mL in the test with HIV Env, isolate 249MB10; 0.081 µg/mL with HIV Env, isolate T263-8; 0.024 µg/mL in test [12]; greater than 100 µg/mL in test [13].

The record behind these values is patent US20230134571A1 (INTERNATIONAL AIDS VACCINE INITIATIVE, published 2023).
